Columns and labels:
P12 = target: T1, P12; assay: two-hybrid library CC1;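 further: natural log of median RNA to DNA barcode read ratio; higher means stronger binding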
T1 chain: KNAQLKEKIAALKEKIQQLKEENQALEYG

P3 = target: T2, P3; assay: two-hybrid library CC1; settings: mean of both orientations;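 further: natural log of median RNA to DNA barcode read ratio; higher means stronger binding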
T2 chain: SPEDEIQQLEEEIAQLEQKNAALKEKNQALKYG

P3mS [1] = target: T3, P3mS; assay: two-hybrid library CC1; settings: mean of both orientations;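 further: natural log of median RNA to DNA barcode read ratio; higher means stronger binding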
T3 chain: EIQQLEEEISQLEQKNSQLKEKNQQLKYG

P4 = target: T4, P4; assay: two-hybrid library CC1; settings: mean of both orientations;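 further: natural log of median RNA to DNA barcode read ratio; higher means stronger binding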
T4 chain: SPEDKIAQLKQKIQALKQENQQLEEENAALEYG

P4mS [2] = target: T5, P4mS; assay: two-hybrid library CC1; settings: mean of both orientations
T5 chain: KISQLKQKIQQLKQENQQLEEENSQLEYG

P5SC1 = target: T6, P5SC1; assay: two-hybrid library CC1; settings: mean of both orientations
T6 chain: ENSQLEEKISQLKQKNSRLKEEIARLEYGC

P5SC2 = target: T7, P5SC2; assay: two-hybrid library CC1; settings: mean of both orientations
T7 chain: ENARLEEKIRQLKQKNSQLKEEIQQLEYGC

P5 = target: T8, P5; assay: two-hybrid library CC1; settings: mean of both orientations
T8 chain: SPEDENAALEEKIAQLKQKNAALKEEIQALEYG

P5mS [3] = target: T9, P5mS; assay: two-hybrid library CC1; settings: mean of both orientations
T9 chain: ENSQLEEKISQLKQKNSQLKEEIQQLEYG

P6SC1 = target: T10, P6SC1; assay: two-hybrid library CC1; settings: mean of both orientations
T10 chain: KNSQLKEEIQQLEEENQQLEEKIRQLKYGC

P6SC2 = target: T11, P6SC2; assay: two-hybrid library CC1; settings: mean of both orientations
T11 chain: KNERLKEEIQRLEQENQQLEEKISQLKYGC

P6 = target: T12, P6; assay: two-hybrid library CC1; settings: mean of both orientations
T12 chain: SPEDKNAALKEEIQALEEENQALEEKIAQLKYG

P6mS [4] = target: T13, P6mS; assay: two-hybrid library CC1; settings: mean of both orientations
T13 chain: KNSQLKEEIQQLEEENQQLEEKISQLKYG

P7 = target: T14, P7; assay: two-hybrid library CC1; settings: mean of both orientations
T14 chain: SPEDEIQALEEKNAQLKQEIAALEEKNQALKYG

P7mS [5] = target: T15, P7mS; assay: two-hybrid library CC1; settings: mean of both orientations
T15 chain: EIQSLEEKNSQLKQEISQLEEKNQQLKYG

P8 = target: T16, P8; assay: two-hybrid library CC1; settings: mean of both orientations
T16 chain: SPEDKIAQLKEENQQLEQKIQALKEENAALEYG

P8mS [6] = target: T17, P8mS; assay: two-hybrid library CC1; settings: mean of both orientations
T17 chain: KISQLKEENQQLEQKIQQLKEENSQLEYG

P9 = target: T18, P9; assay: two-hybrid library CC1; settings: mean of both orientations
T18 chain: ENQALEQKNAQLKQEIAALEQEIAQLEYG

4H_APH3 = target: T19, 4H_APH3; assay: two-hybrid library CCmax
T19 chain: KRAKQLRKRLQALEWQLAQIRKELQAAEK

4H_APH = target: T20, 4H_APH; assay: two-hybrid library CCmax
T20 chain: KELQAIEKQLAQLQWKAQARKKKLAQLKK

4H_BCR = target: T21, 4H_BCR; assay: two-hybrid library CCmax; settings: mean of both orientations
T21 chain: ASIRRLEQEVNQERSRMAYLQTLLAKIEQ

4H_GCN4 = assay: two-hybrid library CCmax
Chain of 4H_GCN4 (chain, as listed by the source): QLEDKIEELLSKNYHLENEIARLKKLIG

AP1-AA = target: T22, AP1-AA; assay: two-hybrid library CCmax
T22 chain: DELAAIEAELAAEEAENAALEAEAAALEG

AP2-AA = target: T23, AP2-AA; assay: two-hybrid library CCmax
T23 chain: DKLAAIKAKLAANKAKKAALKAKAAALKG

AP3-AA = target: T24, AP3-AA; assay: two-hybrid library CCmax
T24 chain: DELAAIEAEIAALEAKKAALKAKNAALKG

AP4-AA = target: T25, AP4-AA; assay: two-hybrid library CCmax; settings: mean of both orientations
T25 chain: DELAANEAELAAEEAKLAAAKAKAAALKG

AP5-AA = target: T26, AP5-AA; assay: two-hybrid library CCmax; settings: mean of both orientations
T26 chain: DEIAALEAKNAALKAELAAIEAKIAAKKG

AP6-AA = target: T27, AP6-AA; assay: two-hybrid library CCmax; settings: mean of both orientations
T27 chain: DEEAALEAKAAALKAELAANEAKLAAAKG

AP7-AA = target: T28, AP7-AA; assay: two-hybrid library CCmax; settings: mean of both orientations
T28 chain: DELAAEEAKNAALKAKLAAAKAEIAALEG

AP8-AA = target: T29, AP8-AA; assay: two-hybrid library CCmax; settings: mean of both orientations
T29 chain: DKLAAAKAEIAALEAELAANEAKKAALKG

GCN2_T = assay: two-hybrid library CCmax
O11-AA = target: T30, O11-AA; assay: two-hybrid library CCmax; settings: mean of both orientations
T30 chain: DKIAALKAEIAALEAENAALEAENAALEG

O13-AA = target: T31, O13-AA; assay: two-hybrid library CCmax; settings: mean of both orientations
T31 chain: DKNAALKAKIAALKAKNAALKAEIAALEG

O14-AA = target: T32, O14-AA; assay: two-hybrid library CCmax; settings: mean of both orientations
T32 chain: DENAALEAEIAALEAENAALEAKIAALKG

P1-AA = target: T33, P1-AA; assay: two-hybrid library CCmax; settings: mean of both orientations
T33 chain: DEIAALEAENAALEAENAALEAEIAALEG

P10-AA = target: T34, P10-AA; assay: two-hybrid library CCmax; settings: mean of both orientations
T34 chain: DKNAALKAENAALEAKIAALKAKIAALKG

P11-AA = target: T35, P11-AA; assay: two-hybrid library CCmax; settings: mean of both orientations
T35 chain: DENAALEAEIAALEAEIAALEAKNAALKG

P12-AA = target: T36, P12-AA; assay: two-hybrid library CCmax; settings: mean of both orientations
T36 chain: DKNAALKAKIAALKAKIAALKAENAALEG

P2-AA = target: T37, P2-AA; assay: two-hybrid library CCmax
T37 chain: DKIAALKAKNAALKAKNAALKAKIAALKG

P3-AA = target: T38, P3-AA; assay: two-hybrid library CCmax
T38 chain: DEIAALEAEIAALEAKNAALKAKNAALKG

P4-AA = target: T39, P4-AA; assay: two-hybrid library CCmax; settings: mean of both orientations
T39 chain: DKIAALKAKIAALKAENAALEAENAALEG

P7-AA = target: T40, P7-AA; assay: two-hybrid library CCmax
T40 chain: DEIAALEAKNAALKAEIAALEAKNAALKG

P8-AA = target: T41, P8-AA; assay: two-hybrid library CCmax; settings: mean of both orientations
T41 chain: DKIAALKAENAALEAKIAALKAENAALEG

P9-AA = target: T42, P9-AA; assay: two-hybrid library CCmax
T42 chain: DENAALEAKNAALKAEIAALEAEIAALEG

zCON9_A = target: T43, zCON9_A; assay: two-hybrid library CCmax
T43 chain: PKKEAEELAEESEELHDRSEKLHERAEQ

zCON9_B = target: T44, zCON9_B; assay: two-hybrid library CCmax; settings: mean of both orientations
T44 chain: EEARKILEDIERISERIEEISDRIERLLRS

zCON9_D = target: T45, zCON9_D; assay: two-hybrid library CCmax
T45 chain: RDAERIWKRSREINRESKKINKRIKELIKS

4H2568-bA = target: T46, 4H2568-bA; assay: two-hybrid library CCNG1
T46 chain: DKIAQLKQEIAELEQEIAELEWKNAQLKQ

4H2619-bA = target: T47, 4H2619-bA; assay: two-hybrid library CCNG1
T47 chain: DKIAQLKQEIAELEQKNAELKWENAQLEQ

4H2745-bA = target: T48, 4H2745-bA; assay: two-hybrid library CCNG1
T48 chain: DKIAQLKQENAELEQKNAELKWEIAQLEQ

4H344-bA = target: T49, 4H344-bA; assay: two-hybrid library CCNG1
T49 chain: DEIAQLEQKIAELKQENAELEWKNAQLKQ

4H363-bA = target: T50, 4H363-bA; assay: two-hybrid library CCNG1
T50 chain: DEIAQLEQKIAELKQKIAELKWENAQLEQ

4H3907-bA = target: T51, 4H3907-bA; assay: two-hybrid library CCNG1
T51 chain: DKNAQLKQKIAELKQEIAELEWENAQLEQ

4H3961-bA = target: T52, 4H3961-bA; assay: two-hybrid library CCNG1
T52 chain: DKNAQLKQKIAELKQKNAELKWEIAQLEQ

4H470-bA = target: T53, 4H470-bA; assay: two-hybrid library CCNG1
T53 chain: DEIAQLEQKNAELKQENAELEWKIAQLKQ

P12mS = target: T54, P12mS; assay: two-hybrid library CCNG1
T54 chain: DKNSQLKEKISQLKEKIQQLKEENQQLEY

P3mS [7] = target: T55, P3mS; assay: two-hybrid library CCNG1
T55 chain: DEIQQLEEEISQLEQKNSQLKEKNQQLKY

P4mS [8] = target: T56, P4mS; assay: two-hybrid library CCNG1
T56 chain: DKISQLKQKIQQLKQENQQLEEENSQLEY

P5mS [9] = target: T57, P5mS; assay: two-hybrid library CCNG1
T57 chain: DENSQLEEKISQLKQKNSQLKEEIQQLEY

P6mS [10] = target: T58, P6mS; assay: two-hybrid library CCNG1
T58 chain: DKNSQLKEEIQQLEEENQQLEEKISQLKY

P7mS [11] = target: T59, P7mS; assay: two-hybrid library CCNG1
T59 chain: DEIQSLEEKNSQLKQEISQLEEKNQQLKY

P8mS [12] = target: T60, P8mS; assay: two-hybrid library CCNG1
T60 chain: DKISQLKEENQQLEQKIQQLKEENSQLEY

P9mS = target: T61, P9mS; assay: two-hybrid library CCNG1
T61 chain: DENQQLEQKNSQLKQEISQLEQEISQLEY

P11mS = target: T62, P11mS; assay: two-hybrid library CCNG1
T62 chain: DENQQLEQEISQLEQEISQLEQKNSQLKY

Binder: KNAQLKEKIAALKEKIQQLKEENQALEYG [P12]
- interaction score (P12): -2.73
- interaction score (P3): 0.183
- interaction score (P3mS [1]): -0.884
- interaction score (P4): -2.97
- interaction score (P4mS [2]): -2.91
- interaction score (P5SC1): -2.96
- interaction score (P5SC2): -2.9
- interaction score (P5): -2.87
- interaction score (P5mS [3]): -2.78
- interaction score (P6SC1): -2.44
- interaction score (P6SC2): -2.47
- interaction score (P6): -2.42
- interaction score (P6mS [4]): -2.73
- interaction score (P7): -2.41
- interaction score (P7mS [5]): -2.85
- interaction score (P8): -2.9
- interaction score (P8mS [6]): -2.85
- interaction score (P9): -1.37

Binder: KELQAIEKQLAQLQWKAQARKKKLAQLKK [4H_APH]
- interaction score (4H_APH3): -1.54
- interaction score (4H_APH): -2.1
- interaction score (4H_BCR): -1.64
- interaction score (4H_GCN4): -2.22
- interaction score (AP1-AA): -1.47
- interaction score (AP2-AA): -1.63
- interaction score (AP3-AA): -1.35
- interaction score (AP4-AA): -1.31
- interaction score (AP5-AA): -2.21
- interaction score (AP6-AA): -2.09
- interaction score (AP7-AA): -2.03
- interaction score (AP8-AA): -1.48
- interaction score (GCN2_T): -2.07
- interaction score (O11-AA): -1.39
- interaction score (O13-AA): -1.81
- interaction score (O14-AA): -1.65
- interaction score (P1-AA): -2.11
- interaction score (P10-AA): -1.47
- interaction score (P11-AA): -1.03
- interaction score (P12-AA): -1.3
- interaction score (P2-AA): -1.82
- interaction score (P3-AA): -0.728
- interaction score (P4-AA): -1.9
- interaction score (P7-AA): -1.87
- interaction score (P8-AA): -1.89
- interaction score (P9-AA): -1.86
- interaction score (zCON9_A): -1.26
- interaction score (zCON9_B): -2.09
- interaction score (zCON9_D): -1.96

Binder: DKIAQLKQEIAELEQEIAELEWKNAQLKQ [4H2568-bA]
- interaction score (4H2568-bA): 1.94
- interaction score (4H2619-bA): 0.254
- interaction score (4H2745-bA): -0.347
- interaction score (4H344-bA): 0.491
- interaction score (4H363-bA): 0.53
- interaction score (4H3907-bA): 1.89
- interaction score (4H3961-bA): 2.32
- interaction score (4H470-bA): -0.973

Binder: DKNSQLKEKISQLKEKIQQLKEENQQLEY [P12mS]
- interaction score (P12mS): -1.27
- interaction score (P3mS [7]): 0.362
- interaction score (P4mS [8]): -0.954
- interaction score (P5mS [9]): -1.57
- interaction score (P6mS [10]): -0.944
- interaction score (P7mS [11]): -0.947
- interaction score (P8mS [12]): -0.844
- interaction score (P9mS): -0.472

Binder: DENQQLEQEISQLEQEISQLEQKNSQLKY [P11mS]
- interaction score (P11mS): -0.707
- interaction score (P12mS): 1.52
- interaction score (P3mS [7]): -0.646
- interaction score (P4mS [8]): 0.774
- interaction score (P5mS [9]): 0.261
- interaction score (P6mS [10]): -0.739
- interaction score (P7mS [11]): -0.84
- interaction score (P8mS [12]): -0.0076
- interaction score (P9mS): -0.542
